Assay results as given in the DeepSol protein solubility set.

Test: soluble on expression in E. coli; label from the status in PepcDB or PDB records

Row | Sequence | soluble on expression in E. coli
1 | QSKDGSVRHSGDNRTGQGDGDDETITVDLTRLPAAVTTVIFSVNNYTGQDFGQVENAYCRLVNTQGGQEIARYNLSVQGNHSAMILASLKRQGGDWAMTAIGAPSR | not soluble
2 | LTETGALFKLEVALLKDKVTLTLDTTGPSLFKRGYRIEKGGAPLKENMAAALVMLTNWRKDRPFYDPVCGSGTICIEAALIGHNIAPGFNRSFTCETWDWVDPAIFEKVRNEAEAKADYDVELDICGSDVDGRMIEVARANAEEVGLGDSITFKQLALKDFTTEKEYGVMVANPPYGERLGEEESVRRLYKEMGHVFRPLTTWSKYILTSDLAFEEYYGAKATKKRKLYNGALRTDLFQYWGTRPPRKPRED | not soluble
3 | KPGAMYRNSSKPAYTRREYISGIPGKKIAQFDMGNNGAGPTYPAQVELVVEKPVQIRHNALEAARVAANRYVQNSGAAANYKFRIRKFPFHVIRENKAAAAAAAAAAADGMRAPFGKPVGTAARVHGANHIFIAWVNPDPNVEEAWRRAKMKVTPTINIDSSPAGNA | soluble
4 | MLTHQFNPYSACTSILVGKNASADGSTMIGRNEDSRAAWAKKMIIHAHREFEEPQTFKSQDQTHPFTMTLPKIRAKYTATPEWTAEYGLFEEDGINEYGVAMSATESAYCNTRVLAADPYVKDGIGEEAMVTVTLPYIHSAREGVERLGHIIEEHGTYETNGILFSDVNEVWYMETGAGHYWVAQRIPDDAYAVVANQLAIQEIDFSDHDNYLYAKDIRNFVLDNQLASMDNGLNFREVFGTADLSDRYYNTPRVWYGQRCFTPSVTQTPESFDLPFIQRADGLIHIDQVQGYLASHYQGTPFDPVGQGTATEKHQYRPISLAKTQESHVLQLRPDLPVTLSGIHWLAMGVAAESVYVPFYAGATTTPAAYQVATEKYDATSAYWIFKHVGILVDAHYHELHGELQTVQKELAIQLGHHIIVTDQQVAALTGDELAMALTKANQKAVDQALNTMQALAADLITKSTDMSPLNYDTDLNLLEHHHHHH | not soluble
5 | MGSDKIHHHHHHMFELHPDSSTPLVNQIIDGLRELIDNQTLKPGAKVPSIRAFAASYSVSTFTVVEAYDRLVAQGLLVSRGNAGFFVNRAAGELLEQHNTEADTSRPTFNSEWYLQQIFEIRQLPYKPGCGWLPNDWMYEDGLRRGLRQVAGSPLELSGYGDPMGLMELRALTAQNLQQELSIVANPAQLMLTHGASQALDLAARTLVRPGDVVLVDDPGYPNLMSILRTQGATLVGVPRTPAGYDLNQLEQLLSHHRPTAFFTQPHLHSPTCSRTPLPQLHRLLQLASQHGFRLVENNLYADMVAEPQPCLASLDHLQQVVYVGSYSKSISPNVRVGYMLANPELMQKLLHLKMRSGLTTSQVMERVVYAAIIDGRWRKHLKRLRQRLAEAHQEVGRHLHRLGFELFTESDEGMYIWTRHPAIPDSAALLDDALEKGIMLGPGQLFMVDAKATGWMRFNVAFSTDPAMWELLEKVLVKHVRRSGM | not soluble
6 | MGHHHHHHSHMAGPVKDREAFQRLNFLYQAAHCVLAQDPENQALARFYCYTERTIAKRLVLRRDPSVKRTLCRGCSSLLVPGLTCTQRQRRCRGQRWTVQTCLTCQRSQRFLNDPGHLLWGDRPEAQLGSQADSKPLQPLPNTAHSISDRLPEEKMQTQGSSNQ | not soluble
7 | MIAHSVDDPFYYLHNFRQVVLWVEQRYQDLLDDQELAFIRAFSQLQAPAQALMVRMVMRKGELFRSDRLDYAEIGDTALALQPLLALGWVREPEQLDLEQLFALLRKEELARCFARQLNRPRAAKHELLAQLQPLALAARSLVEWFPDSDVRILQWCLQPLCDRIRLLFFGNLYQDWSDFVLADLGLLRYEQVPFSPDSRALQQRDDVDLAMALHHCAERLEQGGDPLPILATLQGLHSSNPWLARRHARLQFAVGQQCERLGEWDLATAVYAQCNHPQARIRQVRVLERSEQWHQAHARALQLAAAPANALEEQALQRMLPRLARKLGGPPQRRQRTTPLELIELELPRGDAALGVEEAVRQHLMQEGGQAHYVENTLFNSLFGLLCWEAIFAPVPGAFFNPFQAAPQDLHDSDFQQRRSALFERCLGRLDEGSHRQAILDCYVAKQGLQSPFVSWSMLSEELLEQALACLPAAALKQCFLRLLQDIRSNRAGMPDLIQFWPEQGRYRMVEVKGPGDRLQDNQLRWLAFCRQHGLPVAVCHVRWSET | not soluble
8 | LFNYKEGDSFFIRGPYGNGFDVSLYEGREIVVVAGGSALAPVRGIVEYFYNNKEKCEKFKLIVGFKSPKDILFADDLKRWSKKLDILVTVDGAEEGYSGNVGLVTKYIPELDMKDINNTSIVVVGPPMMMKFTVEEFLKRDLDEKNIWV | not soluble
9 | MRLEIAEKYMAEAYEYLKKGDTIQASGKAYKVAEEIVKAIKFLISKLIGQDVGVISPYRTQVRKLDQELANYKPYVEVNTVDAFQGREKDVIIFSVTATNGLRFVTNRRRLNVAFTRPRYKLIVLGNENSIMSCQMTIC | soluble
10 | MSLYRIDFNKLRFLICDDNPHMRRILRTLLHSFGTREVYEAEDGATALEMYSHYSPDILITDWEMPIFDGLELAQMIRQPEAKGNPYAPIIMLTAHSEKRRVTLARDAGVTEFLAKPISSKGLYQRILNVVASPREGHHHHHH | not soluble
11 | MGHHHHHHGSLVPRGSRAYSFKVVLLGEGCVGKTSLVLRYCENKFNDKHITTLQASFLTKKLNIGGKRVNLAIWDTAGQERFHALGPIYYRDSNGAILVYDITDEDSFQKVKNWVKELRKMLGNEICLCIVGNKIDLEKERHVSIQEAESYAESVGAKHYHTSAKQNKGIEELFLDLCKRMIET | soluble
12 | MSKRRVVVTGMGMLSPVGNTVESSWKALLAGQSGIVNIEHFDTTNFSTRFAGLVKGFDCEQYMSKKDARKMDLFIQYGIAAGIQALEDSGLEVNEENAARIGVAIGSGIGGLELIETGHQALIEKGPRKVSPFFVPSTIVNMIAGNLSIMRGLRGPNIAISTACTTGLHNIGHAARMIAYGDADAMVAGGAEKASTPLGMAGFGAAKALSTRNDEPQKASRPWDKDRDGFVLGDGAGIMVLEEYEHAKARGAKIYAEVVGFGMSGDAYHMTSPSEDGSGGALAMEAAMRDAGVTGEQIGYVNAHGTSTPAGDVAEVKGIKRALGEAGTKQVLVSSTKSMTGHLLGAAGSVEAIITVMSLVDQMVPPTINLDNPEEGLGVDLVPHVARKVESMEYAMCNSFGFGGTNGSLIFKRM | not soluble
13 | MFDPREKIALFIDGANLYAASKSLGFDIDYRKLLKAFQKRGYLLRAYYYTALIEDQEYSSIRPLIDWLDYNGYKVVTKPAKEFTDSLGRRKIKGNMDIELAIDAMEQSESVDHLVIFSGDGDFTTLVEALQRKGRKVSVVSTMSTQPPMIADDLRRQADHFIDLATLRGEIGREPSERVQRPVEPVADDVEL | not soluble
14 | VEGLNPLIPQKSNRGVIDVAIFREYVSGGKDRAAEDRRRHRELVEESIKKNIGNIIAEESIIGQSKDKKIKIPIRSIKEYQFVYGKNGPSVGSGDGTEKRGEKIGEEKTANGGQGVGQAGNQEGEEIYETEITIEELINYLFDDLNLPDIDKKRIAEQESIRSYKNLGYQRKGIPPRLAKKRSVIEKIKRKQAYLRNSRELGDLDESAEEDIAAQETLDGVRKRFPFSEDDLRYRRVREDRKKDFNAVVICIMDVSGSMDQTKKYLARSFYFLLYQFIRLKYANVDVVFIAHTTTAKEVSEDEFFHRGESGGTYISSGYEKALEIIEQRYNPNSWNIYAFHCSDGDNWSEDNKKAVELGLKLCDVCNLFGYGEIVPGYYSTGSTIKDEFQKSIKRDNFSVITITNKDDVLPGLKKLLEKEGE | soluble
15 | MEIGVPKEIKNQEFRVGLSPSSVRTLVEAGHTVFIETQAGIGAGFADQDYVQAGAQVVPSAKDAWSREMVVKVKEPLPAEYDLMQKDQLLFTYLHLAAARELTEQLMRVGLTAIAYETVELPNRSLPLLTPMSIIAGRLSVQFGARFLERQQGGRGVLLGGVPGVKPGKVVILGGGVVGTEAAKMAVGLGAQVQIFDINVERLSYLETLFGSRVELLYSNSAEIETAVAEADLLIGAVLVPGRRAPILVPASLVEQMRTGSVIVDVAVDQGGCVETLHPTSHTQPTYEVFGVVHYGVPNMPGAVPWTATQALNNSTLPYVVKLANQGLKALETDDALAKGLNVQAHRLVHPAVQQVFPDLA | soluble
16 | MSMMDKTVLYFGLVEISFDVPDFIFQKIKEQNNKIRYYSKSINILGSVKFINSNQQFIEYDGNGNILVYGRLKYFKEGISLYYIGEYLAECLLIEHSDTLLIHAAAVYNPLSGHSILLLGDKGAGKTTVAIRLCIEHGYHLIGNDQVIFGSNSGILLTYAGTSFFKIRRTAVLSDNLLFKLFSKFFNRSLQFNKASWDDKISIFPKELGIRTCNFSTEISKIYYIKTDKKEKQIYHSIWSDSLASLYLNELLGRHISGQVACFQSDNGKYFSTMPLINYEKNNRVREQIVKGIFAKQKLFKITAATPAKIAEAIIENVKKNS | not soluble
17 | GSAMRSAQVYRWQIPMDAGVVLRDRRLKTRDGLYVCLREGEREGWGEISPLPGFSQETWEEAQSVLLAWVNNWLAGDCELPQMPSVAFGVSCALAELTDTLPQAANYRAAPLCNGDPDDLILKLADMPGEKVAKVKVGLYEAVRDGMVVNLLLEAIPDLHLRLDANRAWTPLKGQQFAKYVNPDYRDRIAFLEEPCKTRDDSRAFARETGIAIAWDESLREPDFAFVAEEGVRAVVIKPTLTGSLEKVREQVQAAHALGLTAVISSSIESSLGLTQLARIAAWLTPDTIPGLDTLDLMQAQQVRRWPGSTLPVVEVDALERLL | soluble
18 | RYHEFLGHFMNQFTSFGVAGAHGKTSTTGLLSHSMKNITDTSYLIGDGTGRGSANAQYFVFEADEYERHFMPYHPAYSIITNIDFDHPDYFTSIDDVFSAFDDYAKQVQKGLFVYGEDSNLRKITSNAPIYYYGFEENDDFMATDIIRTTTGSNFKVKHDGQIIGEFHVPAYGRHNILNATAVIANLYVAGFDMALVAEHLKTFSGV | not soluble
19 | MGSDKIHHHHHHMQRIMVIGGPGSGKSTLGRKLGARLGLPVVHMDPIYWLGDWVERDKAEAMRMAKEVADGSQWVFEGNHFASMAYRAERADLIVFLDMPRVLRMWRILWRSLRYYGRTRPDMGPNCPERFNRAFLKFCWTYDREGRLRALGFVDDWRDRRRVRILTSRRQVAAFLVEIDRQ | not soluble
20 | MGSDKIHHHHHHMEKIIITATAESIEQVKELLVAGVDRIYVGEADHALRIPTNFTYDELREIAELVHSAGKELTVAANALMHQDMMDNIKPFMELMREIKVDYLVVGDTGIFYINKRDGYNFKLIYDTSVFVTSSRQINFWKDHGAVEAVLAREIPSEELFDIAKNLEMPAEILVYGASVIHHSKRTLLQNYYNFTKADETDLSRGRGLFLAEPSDPDSHYSIFEDKHGTHIFINNDIDMMTKLSELDEHGYHNWKLDGIYCPGQNFVEIVKLFVQARDLIEKGEFTYDQAFLLDEQVRKLHPAERGLDTGFYEFDRNKVK | not soluble
21 | MLTEGISIQSYDGHTFGALVGSPAKAPAPVIVIAQDIFGVNAFMRETVSWLVDQGYAAVCPDLYARQAPGTALDPQDERQREQAYKLWQAFDMEAGVGDLEAAIRYARHQPYSNGKVGLVGYSLGGALAFLVASKGYVDRAVGYYGVGLEKQLNKVPEVKHPALFHMGGQDHFVPAPSRQLITEGFGANPLLQVHWYEEAGHSFARTGSSGYVASAAALANERTLDFLVPLQSRKP | soluble
22 | MGSDKIHHHHHHMSYDLPRLTPDKDFKVPSACGVSGIMNTSGKRFSGSVIVESMALMRERGNGLGAGYAAYGIYPELKDLYCFHMLYDSDLDKKNAEEYIKDHYEIIESEPIPTRKNPHIKEVHILWRYFLKPKFIPEDMSEEDFVVSTVMFINEKINGAFVMSSGKNMGVFKGVGFPEDIADFYRIDEYKGYIWTAHNRFPTNTVGWWGGAHPFGILDWTVVHNGEISSYGINRRFLEAYGYKCTLMTDTEVVAYLVDLFMRRFGYSPQLTAKILAAPLWKDIDLMPEEERKLYTALRMNYGGALLNGPFAIIVANNNMMMGLNDRIKLRPLVAATKDDFLYIASEESAIRVVCPEPDEVWAPKAGDPVVGVLKSARKTQVVLEGENG | not soluble
